Experimental data published in patent US8790663B2, “Antigenic determinants of human death receptor DR5” (Institute of Basic Medical Sciences, Chinese Academy of …, priority 2009, dated 2014).

Legend:
AD5-10 [1] = test: Synthetic peptides binding AD5-10 and blocking its tumoricidal activity on Jurkat cells; type: cell-based, mouse
Description: (§1) The human lymphocyte leukemia Jurkat cells in exponential phase were seeded in the 96-well plate at the density of 2×10^4/well. Then synthetic peptides were sufficiently mixed with AD5-10 according to corresponding concentrations and incubated at 37° C. for 1 h. The mixture was then added to the culture wells containing the tumor cells. CCK-8 agent (Dojindo Laboratories, Kumamoto, Japan) was used and the OD values (wavelength […]) were detected 2 h after the reaction. The OD value of the wells having no cells was set to be “0”, the Relative cell viability=OD value of treated well/OD value of untreated sample×100%.

AD5-10 [2] = test: Oriented Peptide Array Library: binding of peptides to AD5-10; design: species or system mouse; conditions: for binding capabilities to AD5-10 (antigenicity): AD5-10 2 μg/ml
Source text: A series of the derivative peptides comprising the core peptide (as shown in Tab. 1 and 2) were synthesized according to the amino acid sequence of human DR5 (NCBI Acc #: NP_671716.1) provided in NCBI protein database. Subsequently, the peptide arrays as said above were spotted on nitrocellulose membranes using an ASP222 SPOT robot workstation (one dot corresponds to one polypeptide of which the concentration is about 5 nmol), the homogenicity of the protein amount was detected with ninhydrin staining before the corresponding detection. The membrane was blocked with 3% BSA in TBS-T solution for 1 h at room temperature and followed by incubation with corresponding specific primary antibodies (the final concentration is 2 μg/ml) at 4° C. over night. The array membrane was then incubated with HRP-conjugated goat anti-mouse polyclonal antibodies for 2 h at room temperature and then chromogenic substrate ECL was added to develop the membrane.

[3] = tested on: human T lymphocyte leukemia Jurkat cells; test: Cell viability of Jurkat cells (CCK-8); type: cell-based; conditions: different concentrations, 8 hours
Description: as §1

[4] = tested on: human colon cancer cells HCT116; test: Tumoricidal activity to human colon cancer cells HCT116 (microscopy, CCK-8); type: cell-based
Description: HCT116 cells were treated with TRAIL, AD5-10 and monoclonal antibodies Adie-1 and Adie-2 of different concentrations. […] The OD value of the wells having no cells was set to be “0”, the Relative cell viability=OD value of treated well/OD value of untreated sample×100%.

[5] = peptide at different concentrations

AITQQDLAPQQRA (wild type epitope 2) [wild-type epitope 2]
binding to AD5-10 and blocking of its cytotoxicity (AD5-10 [1]; peptide 10 μM): can bind to AD5-10 and block its cytotoxicity | binding to AD5-10 and blocking of its cytotoxicity (AD5-10 [1]; [5]): can bind to AD5-10 and block its cytotoxicity

ALITQQDLAPQQ (Extended sequence of SEQ ID NO. 1 which extends from the N-terminal of the said amino acid sequence to the C-terminal of the amino acid sequence in accordance with the amino acid sequence of DR5)
binding capabilities to AD5-10 (antigenicity) (AD5-10 [2]): the strongest

AQITQQDLAPQQRA (wild type epitope 1) [wild-type epitope 1]
binding to AD5-10 and blocking of its cytotoxicity (AD5-10 [1]; peptide 10 μM): can bind to AD5-10 and block its cytotoxicity | binding to AD5-10 and blocking of its cytotoxicity (AD5-10 [1]; [5]): can bind to AD5-10 and block its cytotoxicity

ITQQDLAPQQRA (Extended sequence of SEQ ID NO. 1 which extends from the N-terminal of the said amino acid sequence to the C-terminal of the amino acid sequence in accordance with the amino acid sequence of DR5)
binding capabilities to AD5-10 (antigenicity) (AD5-10 [2]): the strongest

QDLAP (Antigenic determinants recognized by the mouse anti-human death receptor DR5 monoclonal antibody AD5-10)
epitope recognized by AD5-10 (AD5-10 [2]): shortest amino acid sequence of the epitope recognized by AD5-10

TRAIL: tumor necrosis factor-related apoptosis inducing ligand, natural ligand for death receptors DR4 and DR5
cell viability of Jurkat cells [3]: can inhibit the cell viability of human T lymphocyte leukemia Jurkat cells in a dose-dependent manner | morphological changes and cell death characteristics of HCT116 cells observed under microscope ([4]; 500 ng/ml, 8 h): Apparent morphological changes and cell death characteristics | cell viability of HCT116 cells ([4]; different concentrations, CCK-8): notably reduced with the increase of the treatment concentrations

mutant epitope 1: synthetic peptide of wild-type epitope 1 with the key amino acid residues mutated (AQITQQDAAPQQRA; mutant epitope 1)
binding to AD5-10 and blocking of its cytotoxicity (AD5-10 [1]; peptide 10 μM): cannot bind to AD5-10

mutant epitope 2: synthetic peptide of wild-type epitope 2 with the key amino acid residues mutated (AITQQDAAPQQRA; mutant epitope 2)
binding to AD5-10 and blocking of its cytotoxicity (AD5-10 [1]; peptide 10 μM): cannot bind to AD5-10
